# From US11667697
# B1: MPXV-31 (antibody, V domains shown)
# VH: QLQLQESGPGLVKPSETLSLTCTVSGGSISSRNFFWAWIRQPPGKGLEFIGSIFYSGGTYYNPSLKSRLSISVDTSRNQFSLRLSSVTAADTAVYYCARHMIVVLPGVPISTSFDPWGQGTL
# VL: DIVMTQSPDSLAVSLGERATINCKSSQSVLSNSNNKNYLAWYQQKPGQPPRLLIYWASARESGVPDRFSGSGSGTDFTLTIISLQPEDVAVYYCQQYYSPPAELSFGGGTKVDIK
# B2: MPXV-9 (antibody, V domains shown)
# VH: QVQLVQSGAEVKKPGASVKVSCKASGYNLTTYDIVWVRQAAGQGLEWMGWMNPKSGNTAYAERFQGRVTMTRNTSISTAYMELSSLRSEDTAVYYCARSLDSLRFLEWFHQNYYYFMDVWGKGTTVT
# VL: EIVLTQSPATLSLSPGERATLSCRASQTIGGYLAWYQQIPGQAPRLLIYDASNRATGIPARFSGSGSGTDFTLTISSLEPEDFAVYYCQLRSTFGGGTKVDIK
# B3: VACV-318 (antibody, V domains shown)
# VH: SYELTQPPSVSVSPGQTARITCSGDELPKRYAYWYQQKSGQAPVLVIYEDTKRPSGIPERFSGSSSGTVATLTISGAQVDDEADYYCYSTDSTSNHKRVFGGGTQVTVL
# V domain: QVQLVESGGGVVQPGRSLRLSCTASGFNFSYYGIHWVRQAPGKGLQWVALISYDGSDKYYADSVKGRFTVSRDYSKNTLFLQMNSLRGDDTAVYYCQMVKVPFYFWGQGTMVTLSS
# B4: MPXV-97 (antibody, V domains shown)
# VH: QVQLVQSGGGVVQPGRSLTLSCSASGFIFTRYGLHWVRQAPGKGLEWVAVISSDGTNRHYADSVKGRFTVSRDNSKSTLYVQMNSLRNEDTAVYYCARLSLEAAWYFDLWGRGTLVTVSS
# VL: QSVVTQPPSVSGAPGQRVTISCTGSSSNIGAGYDVHWYQHLPGTAPKVLIYGNTNRPSGVPDRFSGSKSGTSASLAITGLQAEDEADYYCQSYDNSLNGPWVFGTGTQ
# B5: MPXV-66 (antibody, V domains shown)
# VH: QVQLQQWGAGLLKPSETLSLTCAVHGGSFSGYFWSWIRQPPGKGLEWIGEMNHSGSTNYNPSLKSRVTISVDTSKKQFSLKLNSVTAADTAVYYCARTARTVRYFENWGQGTLVTVSS
# VL: DIVMTQSPDSLAVSLGERATINCKSSQTVLYNSNNYSYLTWYQQKPGQPPRVLIYWASTRESGVPDRFSGSGSGTDFTLTISSLQAENVALYYCQQYYSTPWTFGQGTKVDIK
# B6: MPXV-71 (antibody, V domains shown)
# V domain 1: EVQLVESGGGLVQPGESLKISCSASGFTFSDYAMHWVRQAPGQGLQYVSAISSNGHSTYYADSVKGRFTFSRDNSKNTLYLQMSSLRPEDTAVYYCVRCLLRGLISPFDYWGQGTLV
# V domain 2: QSVLTQPPSVSEAPRQRVTISCSGSSSNIGNNAVNWYQQLPGKAPKLLIYYDDLLPSGVSDRFSGSKSGTTASLTISGPPEDEADFYCSTWDYSLSARVFGGGTQVTVL
# B7: VACV-301 (antibody, V domains shown)
# VH: EVQLLESGGGLVQPGGSLRLSCAASGFSFSSYAMSWVRQAPGKGLEWVSGIGNSGDRTFYADSAKGRFTIFRDNSNNRLYLQMNSLRAADTAVYYCAKWGRFESGAFWGQGVLVTVSS
# VL: SYELTQSPSVSVSPGQTARITCSGDALPEQYAYWYQQKPGQAPVLVIYKDSERPSGIPERFSGSGSGTTVTLTITGVQAEDEADYYCQSADNSGTYEVFGTGTKVTVL
# B8: MPXV-79 (antibody, V domains shown)
# VH: QVQLVQSGAEVKKPGASVKVSCKASGYSFRSNGISWVRQAPGQGFEWLGWIAAYNGDTKYVQKFQGRLTMTTDTSTDTAYMELWSLRSDDTAVYYCARDPKLGRKGSAFDIWGQGTLVIVSS
# VL: EIVLTQSPATLSLSPGGRATLSCRASQSVGNYLTWYQQKPGQAPRLLIFDGSTRATGIPARFSGSGSGTDFTLTISSLEPEDFAVYYCLQRSDLYTFGQGTKVDIK
# B9: VACV-315 (antibody, V domains shown)
# VH: EVQLLESGGGLVQPGGSLKLSCAASGFIFSNYAMGWVRQAPGKGLEWVSALSASDGVTSYADSVKGRFTISRDNSKNTMYLQMNRLRTEDTAIYFCAKGRARVNNIYRYFDHWGQGTLVTVSS
# VL: QSVLTQPASVSGSPGQSITISCTGTSSDVGAYTFVSWYQHHPGKAPKLIIYEVSNRPSGVSDRFSGSKSGNTASLTISGLQAEDEADYYCNSYTTTSPWVFGGGTQLTVL
# B10: VACV-309 (antibody, V domains shown)
# VH: EVQLLESGGGLVQPGESLKLSCAASGFTFSSYAMNWVRQAPGKGLEWVSGISGSGGSTYYADSVKGRFTVSRDNSKNTLYLQMNSLRAEDTAVYYCAKDNNYYYYGMDVWGQGTTVTVSS
# VL: AIQMTQSPSSLSASVGDRVTITCRASQGIRNDLGWYQQKPGKAPKLLIYAASSLQSGVPSRFSGSGSGTDFTLTISSLQPEDFATYYCLQDYNYPRMFGQGTKVDIK
# B11: VACV-314 (antibody, V domains shown)
# VH: QVQLVQSGPGLVKPSETLSLTCTVSGGSISSYYWSWIRQPPGKGLEYIGHIYYSGGTKYNPSLRSRVTISVDTSKNQFSLKLTSVTAADTAVYYCARLAGRKPDADSWGQGTLVTVSS
# VL: QPVLTQEPSLTVSPGGTVTLTCASSTGAVTSGFFPNWLQQKPGQAPRALIYSTNNKHSWTPARFSGSLLGGKAALTLSGVQPEDEAEYYCLLYYGGVVVFGGGTKLTVL
# B12: VACV-22 (antibody, V domains shown)
# VH: QVQLVESGGGVVQPGRSLRLSCAASGFTFSNSGMHWVRQAPGKGLEWVAVIWFDGTNKYYADSVKGRFTISRDNSKNTLYLQMNSLRAEDTAVYYCARVPCGGDCYSGYLQHWGQGTLVTVSS
# VL: AIVMTQSPATLSVSPGERATLSCRASQSVSSTLAWYQQKPGQAPRLLIYGASTKATGIPARFSGSGSGTEFTLTISSLQSEDFAVYYCQHYNNWPPLLTFGGGTKVDIK
# B13: MPXV-87 (antibody, V domains shown)
# V domain 1: QVQLVQSGAEVKKPGASVKVSCKASGYTFTSHGIIWVRQAPGQGLEWMGWISVYNDNTNSAQKFQDRVTMTTATSTSTAYMELRSLRSDDTAVYYCARSSSGPRYYYYGMDVWGQGTTSP
# V domain 2: QSVVTQPPSVSGAPGQRVTISCTGSSSNIGAGYAVHWYYQLPGIAPKLLIFGNNNRPSGVPDRFSGSKSGTSASLAITGLQAEDEADYYCQSYDSSLSGWVFGGGTQVTVL
# B14: MPXV-51 (antibody, V domains shown)
# VH: QLQLQESGPGLVKPSETLSLSCTVSGGSINSRTYYWGWIRQPPGKGPEWIGTVFHNVSTLYTSSLRSRVTISVDTSKNRFSLKLTSVTAADTAVYFCGRLTPRNLFRGTLVRWVDPWGQGILVTVSS
# VL: EIVLAQSPGTLSLSPGERATLSCRASHNLNSNYLAWYQQKPGQAPRLLIYGASSRATGIPDRFTGSGSGTDFTLTISRLEPEDFAVYYCQQYAGSLTFGGGTKVDIK
# Key:
# [1] = target: VACV I1 protein (vaccinia virus); assay: lysate ELISA
# [2] = target: MPXV ortholog of I1 (monkeypox virus); assay: lysate ELISA
# [3] = target: CPXV ortholog of I1 (cowpox virus); assay: lysate ELISA
# [4] = target: CPXV ortholog of A25 (cowpox virus); assay: lysate ELISA
# [5] = target: MPXV ortholog of A25 (monkeypox virus); assay: lysate ELISA
# [6] = target: VACV A25 protein (vaccinia virus); assay: lysate ELISA
# [7] = target: VACV A21 protein (vaccinia virus); assay: purified antigen ELISA
# [8] = target: MPXV ortholog of I1 (monkeypox virus); assay: cell-based or functional assay
# [9] = target: MPXV ortholog of B5 (monkeypox virus); assay: lysate ELISA
# [10] = target: CPXV ortholog of B5 (cowpox virus); assay: lysate ELISA
# [11] = target: CPXV ortholog of B5 (cowpox virus); assay: cell-based or functional assay
# [12] = target: VARV ortholog of B5 (variola virus); assay: purified antigen ELISA
# [13] = target: CPXV ortholog of A27 (cowpox virus); assay: lysate ELISA
# [14] = target: MPXV ortholog of the A27 VACV protein (monkeypox virus); assay: lysate ELISA
# [15] = target: CPXV ortholog of A27 (cowpox virus); assay: cell-based or functional assay
# [16] = target: MPXV ortholog of the A27 VACV protein (monkeypox virus); assay: cell-based or functional assay
# [17] = target: MPXV ortholog of the A27 VACV protein (monkeypox virus); assay: purified antigen ELISA
# [18] = target: VARV ortholog of A27 (variola virus); assay: purified antigen ELISA
# [19] = target: MPXV ortholog of H3 (monkeypox virus); assay: lysate ELISA
# [20] = target: CPXV ortholog of H3 (cowpox virus); assay: lysate ELISA
# [21] = target: MPXV ortholog of H3 (monkeypox virus); assay: cell-based or functional assay
# [22] = target: CPXV ortholog of H3 (cowpox virus); assay: cell-based or functional assay
# [23] = target: CPXV ortholog of A33 (cowpox virus); assay: lysate ELISA
# [24] = target: MPXV ortholog of A33 (monkeypox virus); assay: lysate ELISA
# [25] = target: MPXV ortholog of A33 (monkeypox virus); assay: cell-based or functional assay
# [26] = target: VARV ortholog of A33 (variola virus); assay: purified antigen ELISA
# [27] = target: CPXV ortholog of L1 (cowpox virus); assay: lysate ELISA
# [28] = target: MPXV ortholog of L1 (monkeypox virus); assay: lysate ELISA
# [29] = target: CPXV ortholog of L1 (cowpox virus); assay: cell-based or functional assay
# [30] = target: MPXV ortholog of L1 (monkeypox virus); assay: cell-based or functional assay
# [31] = target: VARV ortholog of L1 (variola virus); assay: purified antigen ELISA
binder,measurement,setting,value
B1,EC50,[1],0.01 µg/mL
same,EC50,[2],0.04 µg/mL
same,EC50,[3],0.01 µg/mL
B2,EC50,[4],0.876 µg/mL
same,EC50,[5],0.107 µg/mL
same,EC50,[6],0.022 µg/mL
B3,EC50,[7],1.3 µg/mL
B4,EC50,[1],0.008 µg/mL
same,EC50,[2],0.001 µg/mL
same,EC50,[3],> 50 µg/mL
same,"PRNT Emax, MPXV MV",[8],96%
same,"PRNT Emax, MPXV MV+C'",[8],76%
same,"PRNT IC50, MPXV MV",[8],0.02 µg/mL
same,"PRNT IC50, MPXV MV+C'",[8],0.02 µg/mL
B5,EC50,[9],> 16 µg/mL
same,EC50,[10],> 29 µg/mL
same,"PRNT Emax, CPXV EV+C'",[11],86%
same,"PRNT IC50, CPXV EV+C'",[11],0.03 µg/mL
same,EC50,[12],0.16 µg/mL
B6,EC50,[1],0.022 µg/mL
same,EC50,[2],0.006 µg/mL
same,EC50,[3],0.014 µg/mL
B7,EC50,[13],> 1.4 µg/mL
same,EC50,[14],> 5.6 µg/mL
same,"PRNT Emax, CPXV MV+C'",[15],86%
same,"PRNT IC50, CPXV MV+C'",[15],4 µg/mL
same,"PRNT Emax, MPXV MV",[16],84%
same,"PRNT Emax, MPXV MV+C'",[16],92%
same,"PRNT IC50, MPXV MV",[16],1.6 µg/mL
same,"PRNT IC50, MPXV MV+C'",[16],0.8 µg/mL
same,EC50,[17],0.04 µg/mL
same,EC50,[18],0.11 µg/mL
B8,EC50,[19],0.003 µg/mL
same,EC50,[20],0.004 µg/mL
same,"PRNT Emax, MPXV MV",[21],67%
same,"PRNT IC50, MPXV MV",[21],12.5 µg/mL
same,"PRNT Emax, CPXV MV+C'",[22],81%
same,"PRNT IC50, CPXV MV+C'",[22],0.2 µg/mL
B9,EC50,[19],0.001 µg/mL
same,EC50,[20],0.002 µg/mL
same,"PRNT Emax, CPXV MV+C'",[22],70%
same,"PRNT IC50, CPXV MV+C'",[22],2.8 µg/mL
B10,EC50,[4],0.005 µg/mL
same,EC50,[5],0.001 µg/mL
same,EC50,[6],0.005 µg/mL
B11,EC50,[19],0.003 µg/mL
same,EC50,[20],0.004 µg/mL
same,"PRNT Emax, MPXV MV+C'",[21],84%
same,"PRNT IC50, MPXV MV+C'",[21],0.8 µg/mL
same,"PRNT Emax, CPXV MV+C'",[22],85%
same,"PRNT IC50, CPXV MV+C'",[22],0.7 µg/mL
B12,EC50,[23],> 0.009 µg/mL
same,EC50,[24],> 0.006 µg/mL
same,"PRNT Emax, MPXV EV+C'",[25],72%
same,"PRNT IC50, MPXV EV+C'",[25],50 µg/mL
same,EC50,[26],0.02 µg/mL
B13,EC50,[27],0.003 µg/mL
same,EC50,[28],0.001 µg/mL
same,"PRNT Emax, CPXV MV",[29],63%
same,"PRNT Emax, CPXV MV+C'",[29],82%
same,"PRNT IC50, CPXV MV",[29],0.8 µg/mL
same,"PRNT IC50, CPXV MV+C'",[29],0.6 µg/mL
same,"PRNT Emax, MPXV MV",[30],57%
same,"PRNT Emax, MPXV MV+C'",[30],65%
same,"PRNT IC50, MPXV MV",[30],50 µg/mL
same,"PRNT IC50, MPXV MV+C'",[30],50 µg/mL
same,EC50,[31],0.3 µg/mL
B14,EC50,[23],0.024 µg/mL
same,EC50,[24],0.025 µg/mL
same,"PRNT Emax, MPXV EV+C'",[25],77%
same,"PRNT IC50, MPXV EV+C'",[25],0.8 µg/mL
same,EC50,[26],0.04 µg/mL
